Read-outs that look alike come from different tables or passages of the source.
T1: monkey Fc-PD-1 protein (monkey, UniProt Q15116 25-170 (human entry))
T1 construct: not shown: Fc part not described
T1 chain: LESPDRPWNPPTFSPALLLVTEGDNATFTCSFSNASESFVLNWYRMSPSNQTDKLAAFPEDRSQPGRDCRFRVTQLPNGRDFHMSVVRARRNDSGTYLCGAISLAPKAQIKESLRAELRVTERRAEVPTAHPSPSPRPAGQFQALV


Key:
[1] = molecular target: T2, recombinant human Fc-PD-1 protein (human, UniProt Q15116 25-170); assay: Biacore, Fab, human Fc-PD-1
T2 construct: may be the same protein as the PD-1 Fc fusion of the Luminex assays; also called recombinant human PD-1 in an Fc fusion construct; not shown: Fc part not described

monkey Fc-PD-1 protein [2] = molecular target: T1, monkey Fc-PD-1 protein; assay: Biacore, Fab, monkey Fc-PD-1
[3] = molecular target: T2, recombinant human Fc-PD-1 protein; assay: Biacore, Fab, human Fc-PD-1; remark: listed apart in the source
monkey Fc-PD-1 protein [4] = molecular target: T1, monkey Fc-PD-1 protein; assay: Biacore, Fab, monkey Fc-PD-1

T2 sequence (Q15116 25-170): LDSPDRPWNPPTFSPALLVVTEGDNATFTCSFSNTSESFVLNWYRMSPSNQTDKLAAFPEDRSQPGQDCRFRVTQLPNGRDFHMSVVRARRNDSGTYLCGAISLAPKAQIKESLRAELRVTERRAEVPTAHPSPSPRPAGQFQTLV

Kd [1] [nM]	koff [1] [s⁻¹]	kon [1] [M⁻¹ s⁻¹]	Kd (monkey Fc-PD-1 protein [2]) [nM]	koff (monkey Fc-PD-1 protein [2]) [s⁻¹]	kon (monkey Fc-PD-1 protein [2]) [M⁻¹ s⁻¹]	Kd [3] [nM]	koff [3] [s⁻¹]	kon [3] [M⁻¹ s⁻¹]	Kd (monkey Fc-PD-1 protein [4]) [nM]	koff (monkey Fc-PD-1 protein [4]) [s⁻¹]	kon (monkey Fc-PD-1 protein [4]) [M⁻¹ s⁻¹]	Binder
4.31	0.000386	89600	–	–	–	–	–	–	–	–	–	A36448 (Fab, V domains shown, humanized Fab clone of 135C12; also called humanized antibody A36448) VH: EVQLVQSGAEVKKPGESLKISCKGSGYSFTNFYIHWVRQMPGKGLEWMGSIYPNYGDTAYNQKFKDRFVFSLDTSVSTAYLQISSLKAEDTAVYYCARGYSYAMDYWGQGTTVTVSS VL: DIQMTQSPSTLSASVGDRVTITCSASQGISGDLNWYQQKPGKTPKLLIYHTSSLHSGVPSRFSGSGSGTDFTLTISSLQPEDFATYYCQYYSKDLLTFGGGTKLEIK
5.13	0.000352	68600	5	0.000575	115000	–	–	–	–	–	–	A35777 (Fab, V domains shown, humanized Fab clone of 135C12; also called humanized antibody A35777) VH: EVQLVQSGAEVKKPGATVKISCKVSGYTFTNFYIHWVRQAPGKGLEWMGSIYPNYGDTAYNQKFKDRVTITADKSTSTAYMELSSLRSEDTAVYYCARGYSYAMDYWGQGTTVTVSS VL: DIQMTQSPSTLSASVGDRVTITCSASQGISGDLNWYQQKPGQAPRLLIYHTSSLHSGVPSRFSGSGSGTDFTLTISSLQPEDFATYYCQYYSKDLLTFGGGTKLEIK
4.46	0.000317	71000	6.07	0.000368	60700	–	–	–	–	–	–	A36437 (Fab, V domains shown, humanized Fab clone of 135C12; also called humanized antibody A36437) VH: EVQLVQSGAEVKKPGESLKISCKGSGYSFTNFYIHWVRQMPGKGLEWMGSIYPNYGDTAYNQKFKDRFVFSLDTSVSTAYLQISSLKAEDTAVYYCARGYSYAMDYWGQGTTVTVSS VL: DIQMTQSPSTLSASVGDRVTITCSASQGISGDLNWYQQKPGQAPRLLIYHTSSLHSGIPARFSGSGSGTDFTLTISSLQPEDFAVYYCQYYSKDLLTFGGGTKLEIK
–	–	–	–	–	–	0.912	9.49e-05	104000	1.13	0.000105	93200	A35793 (Fab, V domains shown, humanized Fab clone of 137F2; also called humanized antibody A35793) VH: QMQLVQSGPEVKKPGTSVKVSCKASGFTFTNYWIGWVRQAPGQALEWMGDIYPGGGYTNYNEKFKGRVTITADKSTSTAYMELSSLRSEDTAVYYCARGYDFVLDRWGQGTTVTVSS VL: DVVMTQSPAFLSVTPGEKVTITCKSSQSLFNSETQKNYLAWYQQKPGQPPKLLIYWASTRESGVPSRFSGSGSGTDFTFTISSLEAEDAATYYCKQSYTLRTFGGGTKLEIK
–	–	–	–	–	–	1.06	0.000104	98800	1.27	0.000116	91400	A35818 (Fab, V domains shown, humanized Fab clone of 137F2; also called humanized antibody A35818) VH: QMQLVQSGPEVKKPGTSVKVSCKASGFTFTNYWIGWVRQAPGQALEWMGDIYPGGGYTNYNEKFKGRVTITADKSTSTAYMELSSLRSEDTAVYYCARGYDFVLDRWGQGTTVTVSS VL: DVVMTQSPAFLSVTPGEKVTITCKSSQSLFNSETQKNYLAWYQQKPGQAPRLLIYWASTRESGVPSRFSGSGSGTDFTFTISSLEAEDAATYYCKQSYTLRTFGGGTKLEIK

The next lines start with the binder.

Binder	Kd [1] [nM]	koff [1] [s⁻¹]	kon [1] [M⁻¹ s⁻¹]	Kd (monkey Fc-PD-1 protein [2]) [nM]	koff (monkey Fc-PD-1 protein [2]) [s⁻¹]	kon (monkey Fc-PD-1 protein [2]) [M⁻¹ s⁻¹]	Kd [3] [nM]	koff [3] [s⁻¹]	kon [3] [M⁻¹ s⁻¹]	Kd (monkey Fc-PD-1 protein [4]) [nM]	koff (monkey Fc-PD-1 protein [4]) [s⁻¹]	kon (monkey Fc-PD-1 protein [4]) [M⁻¹ s⁻¹]
A35775 (Fab, V domains shown, humanized Fab clone of 135C12; also called humanized antibody A35775) VH: EVQLVQSGAEVKKPGESLKISCKGSGYSFTNFYIHWVRQAPGQRLEWMGSIYPNYGDTAYNQKFKDRFVFSLDTSVSTAYLQISSLKAEDTAVYYCARGYSYAMDYWGQGTTVTVSS VL: DIQMTQSPSSVSASVGDRVTITCSASQGISGDLNWYQQKPGQAPRLLIYHTSSLHSGVPSRFSGSGSGTDFTLTISSLQPEDFATYYCQYYSKDLLTFGGGTKLEIK	2.54	0.000203	80200	5.73	0.000347	60500	–	–	–	–	–	–
A36443 (Fab, V domains shown, humanized Fab clone of 135C12; also called humanized antibody A36443) VH: EVQLVQSGAEVKKPGATVKISCKVSGYTFTNFYIHWVRQARGQRLEWIGSIYPNYGDTAYNQKFKDRVTITADKSTSTAYMELSSLRSEDTAVYYCARGYSYAMDYWGQGTTVTVSS VL: DIQMTQSPSSVSASVGDRVTITCSASQGISGDLNWYQQKPGQAPRLLIYHTSSLHSGVPSRFSGSGSGTEFTLTISRLEPEDFAVYYCQYYSKDLLTFGGGTKLEIK	3.02	0.000215	71200	6.16	0.000585	94900	–	–	–	–	–	–
A35789 (Fab, V domains shown, humanized Fab clone of 135C12; also called humanized antibody A35789) VH: EVQLVQSGAEVKKPGESLKISCKGSGYSFTNFYIHWVRQMPGKGLEWMGSIYPNYGDTAYNQKFKDRVTITADKSTSTAYMELSSLRSEDTAVYYCARGYSYAMDYWGQGTTVTVSS VL: DIQMTQSPSSVSASVGDRVTITCSASQGISGDLNWYQQKPGQAPRLLIYHTSSLHSGIPARFSGSGSGTDFTLTISRLEPEDFAVYYCQYYSKDLLTFGGGTKLEIK	4.17	0.000293	70100	6.19	0.000413	66700	–	–	–	–	–	–
A35774 (Fab, V domains shown, humanized Fab clone of 135C12; also called humanized antibody A35774) VH: EVQLVQSGAEVKKPGESLKISCKGSGYSFTNFYIHWVRQAPGQRLEWMGSIYPNYGDTAYNQKFKDRFVFSLDTSVSTAYLQISSLKAEDTAVYYCARGYSYAMDYWGQGTTVTVSS VL: DIQMTQSPSSVSASVGDRVTITCSASQGISGDLNWYQQKPGKAPKLLIYHTSSLHSGVPSRFSGSGSGTDFTLTISSLQPEDFATYYCQYYSKDLLTFGGGTKLEIK	2.61	0.000211	80900	2.79	0.000194	69300	–	–	–	–	–	–
A35783 (Fab, V domains shown, humanized Fab clone of 135C12; also called humanized antibody A35783) VH: EVQLVQSGAEVKKPGESLKISCKGSGYSFTNFYIHWVRQARGQRLEWIGSIYPNYGDTAYNQKFKDRFVFSLDTSVSTAYLQISSLKAEDTAVYYCARGYSYAMDYWGQGTTVTVSS VL: DIQMTQSPSSLSASVGDRVTITCSASQGISGDLNWYQQKPGKTPKLLIYHTSSLHSGVPSRFSGSGSGTDFTLTISSLQPEDFATYYCQYYSKDLLTFGGGTKLEIK	2.55	0.000196	76800	1.9	0.0008	421000	–	–	–	–	–	–
A35796 (Fab, V domains shown, humanized Fab clone of 137F2; also called humanized antibody A35796) VH: QMQLVQSGPEVKKPGTSVKVSCKASGFTFTNYWIGWVRQAPGQALEWMGDIYPGGGYTNYNEKFKGRVTITADKSTSTAYMELSSLRSEDTAVYYCARGYDFVLDRWGQGTTVTVSS VL: DVVMTQSPAFLSVTPGEKVTITCKSSQSLFNSETQKNYLAWYQQKPGQPPKLLIYWASTRESGVPSRFSGSGSGTDFTLTISSLQPEDFATYYCKQSYTLRTFGGGTKLEIK	–	–	–	–	–	–	1.18	0.000123	104000	1.03	9.81e-05	95300
A35797 (Fab, V domains shown, humanized Fab clone of 137F2; also called humanized antibody A35797) VH: EVQLVQSGAEVKKHGESLKISCKGSGYSFTNYWIGWVRQATGQGLEWMGDIYPGGGYTNYNEKFKGRVTITADKSTSTAYMELSSLRSEDTAVYYCARGYDFVLDRWGQGTTVTVSS VL: DIQMTQSPSSLSASVGDRVTITCKSSQSLFNSETQKNYLAWYQQKPGQPPKLLIYWASTRESGVPSRFSGSGSGTDFTLTISSLQPEDFATYYCKQSYTLRTFGGGTKLEIK	–	–	–	–	–	–	0.802	8.02e-05	100000	1.13	0.000106	93700
A35799 (Fab, V domains shown, humanized Fab clone of 137F2; also called humanized antibody A35799) VH: QMQLVQSGAEVKKTGSSVKVSCKASGYTFTNYWIGWVRQMPGKGLEWMGDIYPGGGYTNYNEKFKGRVTITADKSTSTAYMELSSLRSEDTAVYYCARGYDFVLDRWGQGTTVTVSS VL: DVVMTQSPAFLSVTPGEKVTITCKSSQSLFNSETQKNYLAWYQQKPGQPPKLLIYWASTRESGVPSRFSGSGSGTDFTLTISSLQPEDFATYYCKQSYTLRTFGGGTKLEIK	–	–	–	–	–	–	0.734	7.43e-05	101000	1.88	0.000169	89700
A35805 (Fab, V domains shown, humanized Fab clone of 137F2; also called humanized antibody A35805) VH: QVQLVQSGSELKKPGASVKVSCKASGYTFTNYWIGWVRQAPGKGLEWMGDIYPGGGYTNYNEKFKGRVTITADKSTSTAYMELSSLRSEDTAVYYCARGYDFVLDRWGQGTTVTVSS VL: DVVMTQSPAFLSVTPGEKVTITCKSSQSLFNSETQKNYLAWYQQKPGQPPKLLIYWASTRESGVPSRFSGSGSGTDFTFTISSLEAEDAATYYCKQSYTLRTFGGGTKLEIK	–	–	–	–	–	–	0.937	8.78e-05	93700	1.08	9.49e-05	88200
A35795 (Fab, V domains shown, humanized Fab clone of 137F2; also called humanized antibody A35795) VH: QVQLVQSGAEVKKPGASVKVSCKASGYTFTNYWIGWVRQAPGQGLEWMGDIYPGGGYTNYNEKFKGRVTITADKSTSTAYMELSSLRSEDTAVYYCARGYDFVLDRWGQGTTVTVSS VL: DVVMTQSPAFLSVTPGEKVTITCKSSQSLFNSETQKNYLAWYQQKPGQAPRLLIYWASTRESGVPSRFSGSGSGTDFTLTISSLQPEDFATYYCKQSYTLRTFGGGTKLEIK	–	–	–	–	–	–	0.797	8.24e-05	103000	1.64	0.000152	92500
